Laboratory results reported in article PMC6197697, “Rice transcription factor OsMADS25 modulates root growth and confers salinity tolerance via the ABA–mediated regulatory pathway and ROS scavenging”.

Tests used:
[1] = target: T1, His-OsMADS25 (Oryza sativa, UniProt Q84NC5 1-227); assay: EMSA; 5 mM Mg2+; 10 mM Tris pH 7.5, 50 mM KCl, 1 mM DTT, 2.5% glycerol, 5 mM MgCl2, 0.05% NP-40, 50 ng/ul poly(dI-dC), 30 ng protein, 400 fmol probe in 20 ul, 25 C 20 min (final values calculated from stocks); settings: protein: recombinant; tags: His (pET32a fusion); chain copies: 2; label: biotin 3' end; blunt
T1 sequence (Q84NC5 whole entry, the tested form may be a part): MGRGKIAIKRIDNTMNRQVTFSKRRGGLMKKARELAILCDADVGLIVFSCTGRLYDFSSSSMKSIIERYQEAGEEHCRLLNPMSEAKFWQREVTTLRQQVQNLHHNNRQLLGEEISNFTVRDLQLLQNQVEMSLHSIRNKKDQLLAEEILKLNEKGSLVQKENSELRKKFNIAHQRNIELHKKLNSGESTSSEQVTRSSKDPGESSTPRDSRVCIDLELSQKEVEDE

[2] = target: T1, His-OsMADS25; assay: EMSA; 5 mM Mg2+; competition stated to confirm specificity; 10 mM Tris pH 7.5, 50 mM KCl, 1 mM DTT, 2.5% glycerol, 5 mM MgCl2, 0.05% NP-40, 50 ng/ul poly(dI-dC), 30 ng protein, 400 fmol probe in 20 ul, 25 C 20 min (final values calculated from stocks); settings: protein: recombinant; tags: His (pET32a fusion); chain copies: 2; label: biotin 3' end; blunt

Row | Binder | binding result [1] | binding result [2]
1 | OsP5CR P1 probe (dsDNA) DNA 1: CAGAGGGCATTCTCCCTAATAAGGCAGATACCTCCG DNA 2: CGGAGGTATCTGCCTTATTAGGGAGAATGCCCTCTG | no binding | –
2 | OsP5CR P2 probe (dsDNA) DNA 1: CGACGAATCCATTCATATATTTGTAGGGGCAGCGG DNA 2: CCGCTGCCCCTACAAATATATGAATGGATTCGTCG | – | binds
